The target of test [1] is T1, Cdc42^2-178 (C-terminally truncated Cdc42 lacking its geranylgeranylation motif) (UniProt Q05062 2-178). In words: FP; GDP-loaded Cdc42.
The target of test [2] is T1, Cdc42^2-178 (C-terminally truncated …). The test is described as follows: FP; GMPPNP-loaded Cdc42.

No end group written: not given here.

T1 sequence (Q05062 2-178): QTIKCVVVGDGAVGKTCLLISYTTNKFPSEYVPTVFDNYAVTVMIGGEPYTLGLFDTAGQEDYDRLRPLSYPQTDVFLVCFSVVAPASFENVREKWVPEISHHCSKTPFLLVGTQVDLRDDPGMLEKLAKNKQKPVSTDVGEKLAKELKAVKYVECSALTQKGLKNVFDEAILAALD

One may read the Kd as the free concentration of one partner at which half of the binding sites on the other are occupied at equilibrium, for simple one-to-one binding. High values mean a looser complex, low ones a tighter complex. As for QISTPSDFMHIVHMGPAPVMELQQNFIDLQ (also: FITC label, position not given here) [FITC-labeled CRIB peptide of C. elegans MRCK1 (residues 1543-1572)], the Kd in test [1] is 1120 µM; in test [2] it was 264 µM.

Values taken from paper doi:10.1101/2022.03.11.483953 (2022).
